Data: patent US20070293656A1, “COLLAGEN BINDING PEPTIDES” (Epix Pharmaceuticals, Inc., priority 2005, published 2007)
Values joined by “and” are separate entries in the source; they are usually repeats but may differ in a detail not shown here. Equal values may be shown once. Read-outs that look alike come from different tables or passages of the source. One block for each molecule: values may come before it. Bridge positions count the residues as written; N and C are the ends. Square brackets hold non-standard residues; d marks the D form. Primed or numbered codes have the meaning given here. Side chains are listed from the residue outwards. Ends that are not written are not given here. * marks the point of attachment. Bip = N[C@@H](Cc1ccc(-c2ccccc2)cc1)C(=O)O; Gd^T = not defined here; Gd^T″ = GdDTPA-thiourea; Cbz = O=C(OCc1ccccc1)*; Dap = NC[C@H](N)C(=O)O

Experiments:
[1] = test system: perfused Langendorff rat heart; assay: Washout kinetics from perfused Langendorff rat heart; conditions: 10 minutes perfusion with buffer after infusion
rat type I collagen = biological target: T1, rat type I collagen (Rattus norvegicus, UniProt P02454+P02466); assay: MR phantom imaging of collagen gel samples at 4.7 T; conditions: centrifuged samples 4 and 8, 4.7 T
T1 construct: Rat collagen (acid soluble, type I, rat tail); purchased Upstate USA, Inc 08-115; host or cells: rat tail
Method: Samples: • 1. […] Sample prepared as sample 2, but centrifuged to separate insoluble rat collagen gel • 5. Sample prepared as sample 3, but centrifuged to separate insoluble human collagen gel • 6. 27 μM GdDTPA solution in PBS, pH 7.4 • 7. 27 μM GdDTPA in a solution of 5.0 μM rat type I collagen in 10 mM phosphate buffer, pH 5 incubated at 37° C. overnight to form a gel • 8. Sample prepared as in sample 7, but centrifuged to separate insoluble rat collagen gel • 9. Homogeneous gel of 5 μM rat collagen • 10. Homogeneous gel of 7.5 μM human collagen
Samples for imaging were placed in glass tubes that were in turn placed in tubes containing water. Images were acquired at 4.7 T on a Bruker Biospec Imager using a Multi-Slice Multi-Echo Method with variable Relaxation Delay (MSMEVTR) experiment. The spin echo time and the relaxation delay were set to TE=11.2 ms and TR=500 ms, respectively with a flip angle of 30°. Images were acquired of sample 2, sample 4, sample 7, and sample 8. […] Sample 7 and 8 show uniform signal intensity.

[2] = test system: perfused Langendorff rat heart; assay: Equilibrium binding to perfused Langendorff rat heart; conditions: Buffer 3.0 μM
Method: After deep anesthesia with pentobarbital (80 mg/kg ip), the chest cavity of a male Sprague Dawley rat (300 g) was opened, retracted and the heart was removed immediately and placed in an ice-cold normal Krebs-Henseleit (K-H) solution (NaCl, 118 mM; KCl, 4.7 mM; CaCl2, 2.5 mM; MgSO4, 1.2 mM; KH2PO4, 1.2 mM; NaHCO3, 25 mM; glucose, 5.5 mM). A K-H buffer filled 20 Gauge needle was inserted into the apex of the heart penetrating into the bottom of the chamber. This was attached to a pressure transducer used to record and monitor heart function. Perfusion pressure (˜60 mmHg) was monitored using a second transducer. The heart was perfused at a constant flow rate of 10-12 mL/min with 37° C. […]
Two peptide test articles, a high collagen binding peptide (SEQ ID NO: 144) and a low collagen binding peptide (SEQ ID NO: 173), are compared to GdDTPA. […] The amount of radioactivity added to the buffer solution was 1-5 μCi.
The heart was perfused for a period of 10 minutes and the perfusion solution was recycled through the heart. […] The heart was then weighed and the radioactivity in the heart measured with a Packard Cobra 5003 Gamma Scintillation counter. An aliquot of the K-H buffer was also weighed and counted. […]
The dual peptide gadolinium tetramer (Compound ID 803) was compared to GdDTPA. […] The amount of radioactivity added to the buffer solution was 1-5 μCi.

[3] = biological target: T2, human collagen type I (acid soluble, extracted from placenta, Sigma C7774) (human, UniProt P02452 162-1218; P08123 80-1119); assay: dried collagen assay
T2 construct: gelled and dried as a fibril film in the assay; also called dried human collagen; h-Collagen

[4] = biological target: T3, rat collagen (acid soluble, type I, rat tail, Upstate 08-115) (rat, UniProt P02454 152-1207; P02466 86-1125); assay: dried collagen assay
T3 construct: also called dried rat collagen; insoluble rat collagen

[5] = biological target: T2, human collagen type I (acid soluble, …); assay: dried collagen assay; remark: listed apart in the source
Method: (§1) An additional 90 μL is reserved in a HPLC glass vial as a measure of the total concentration.

[6] = biological target: T3, rat collagen (acid soluble, type I, rat …); assay: dried collagen assay; remark: listed apart in the source
Method: as §1

[7] = biological target: T2, human collagen type I (acid soluble, …); assay: dried collagen assay; remark: listed apart in the source
[8] = biological target: T3, rat collagen (acid soluble, type I, rat …); assay: dried collagen assay; remark: listed apart in the source
[9] = biological target: T2, human collagen type I (acid soluble, …); assay: dried collagen assay; remark: listed apart in the source
[10] = biological target: T3, rat collagen (acid soluble, type I, rat …); assay: dried collagen assay; remark: listed apart in the source
[11] = biological target: T2, human collagen type I (acid soluble, …); assay: dried collagen assay; remark: listed apart in the source
[12] = biological target: T3, rat collagen (acid soluble, type I, rat …); assay: dried collagen assay; remark: listed apart in the source

T2 sequence (P02452 162-1218 limits assumed, chain 1 of 2): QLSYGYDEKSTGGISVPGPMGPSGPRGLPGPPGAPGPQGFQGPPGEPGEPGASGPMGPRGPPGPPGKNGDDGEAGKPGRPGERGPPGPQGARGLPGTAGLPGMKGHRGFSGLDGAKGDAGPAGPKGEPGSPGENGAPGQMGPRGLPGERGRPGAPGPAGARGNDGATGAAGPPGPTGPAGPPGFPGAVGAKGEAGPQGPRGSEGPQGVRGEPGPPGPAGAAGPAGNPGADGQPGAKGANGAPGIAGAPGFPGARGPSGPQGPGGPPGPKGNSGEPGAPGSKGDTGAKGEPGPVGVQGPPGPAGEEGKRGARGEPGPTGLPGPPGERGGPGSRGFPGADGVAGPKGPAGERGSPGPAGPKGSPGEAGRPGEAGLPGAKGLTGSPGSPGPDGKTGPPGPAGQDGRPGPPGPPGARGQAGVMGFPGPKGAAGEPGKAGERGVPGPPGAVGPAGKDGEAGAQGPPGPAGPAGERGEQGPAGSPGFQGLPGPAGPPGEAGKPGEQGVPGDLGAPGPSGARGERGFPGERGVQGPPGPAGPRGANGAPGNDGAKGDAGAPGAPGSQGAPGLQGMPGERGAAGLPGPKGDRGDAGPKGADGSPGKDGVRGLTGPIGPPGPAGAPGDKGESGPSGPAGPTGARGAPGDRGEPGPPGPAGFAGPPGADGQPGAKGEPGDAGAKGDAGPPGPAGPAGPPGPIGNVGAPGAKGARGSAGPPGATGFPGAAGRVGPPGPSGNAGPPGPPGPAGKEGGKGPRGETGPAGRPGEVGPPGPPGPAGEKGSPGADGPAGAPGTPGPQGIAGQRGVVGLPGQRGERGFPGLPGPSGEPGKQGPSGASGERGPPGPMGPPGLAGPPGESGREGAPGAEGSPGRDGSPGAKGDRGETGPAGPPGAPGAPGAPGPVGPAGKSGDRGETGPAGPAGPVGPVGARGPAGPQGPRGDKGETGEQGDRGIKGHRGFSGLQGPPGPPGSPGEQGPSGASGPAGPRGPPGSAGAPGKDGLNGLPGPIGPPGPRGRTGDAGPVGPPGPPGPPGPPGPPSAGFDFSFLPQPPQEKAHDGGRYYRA
T2 sequence (P08123 80-1119 limits assumed, chain 2 of 2): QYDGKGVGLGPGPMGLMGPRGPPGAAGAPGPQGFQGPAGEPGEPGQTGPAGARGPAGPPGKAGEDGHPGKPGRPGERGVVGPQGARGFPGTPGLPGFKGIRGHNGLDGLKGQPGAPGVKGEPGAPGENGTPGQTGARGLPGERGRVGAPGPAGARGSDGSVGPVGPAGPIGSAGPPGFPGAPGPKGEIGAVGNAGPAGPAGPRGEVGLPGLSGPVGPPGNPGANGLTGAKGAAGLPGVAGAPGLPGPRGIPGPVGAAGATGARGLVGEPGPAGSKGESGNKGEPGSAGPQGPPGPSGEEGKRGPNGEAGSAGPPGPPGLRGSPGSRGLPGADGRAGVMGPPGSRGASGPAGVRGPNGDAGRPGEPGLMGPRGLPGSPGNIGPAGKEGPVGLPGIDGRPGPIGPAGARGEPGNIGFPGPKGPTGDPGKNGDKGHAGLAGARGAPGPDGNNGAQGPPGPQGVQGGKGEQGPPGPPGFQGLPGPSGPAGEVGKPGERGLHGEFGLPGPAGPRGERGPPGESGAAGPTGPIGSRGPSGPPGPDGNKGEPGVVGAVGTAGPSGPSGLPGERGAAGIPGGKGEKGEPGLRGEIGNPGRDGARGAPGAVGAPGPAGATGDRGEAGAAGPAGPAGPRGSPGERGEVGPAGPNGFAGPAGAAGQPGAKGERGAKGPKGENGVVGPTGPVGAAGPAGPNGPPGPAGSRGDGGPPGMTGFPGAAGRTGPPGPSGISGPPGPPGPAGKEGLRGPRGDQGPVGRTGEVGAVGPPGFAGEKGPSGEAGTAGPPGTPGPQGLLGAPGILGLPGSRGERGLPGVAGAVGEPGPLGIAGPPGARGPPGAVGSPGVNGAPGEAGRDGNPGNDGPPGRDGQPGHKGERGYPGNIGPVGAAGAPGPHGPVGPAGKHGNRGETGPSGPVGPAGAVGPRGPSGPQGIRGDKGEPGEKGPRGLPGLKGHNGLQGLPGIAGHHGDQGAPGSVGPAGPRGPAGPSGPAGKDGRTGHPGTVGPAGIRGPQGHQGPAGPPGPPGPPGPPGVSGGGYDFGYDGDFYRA
T3 sequence (P02454 152-1207 limits assumed, chain 1 of 2): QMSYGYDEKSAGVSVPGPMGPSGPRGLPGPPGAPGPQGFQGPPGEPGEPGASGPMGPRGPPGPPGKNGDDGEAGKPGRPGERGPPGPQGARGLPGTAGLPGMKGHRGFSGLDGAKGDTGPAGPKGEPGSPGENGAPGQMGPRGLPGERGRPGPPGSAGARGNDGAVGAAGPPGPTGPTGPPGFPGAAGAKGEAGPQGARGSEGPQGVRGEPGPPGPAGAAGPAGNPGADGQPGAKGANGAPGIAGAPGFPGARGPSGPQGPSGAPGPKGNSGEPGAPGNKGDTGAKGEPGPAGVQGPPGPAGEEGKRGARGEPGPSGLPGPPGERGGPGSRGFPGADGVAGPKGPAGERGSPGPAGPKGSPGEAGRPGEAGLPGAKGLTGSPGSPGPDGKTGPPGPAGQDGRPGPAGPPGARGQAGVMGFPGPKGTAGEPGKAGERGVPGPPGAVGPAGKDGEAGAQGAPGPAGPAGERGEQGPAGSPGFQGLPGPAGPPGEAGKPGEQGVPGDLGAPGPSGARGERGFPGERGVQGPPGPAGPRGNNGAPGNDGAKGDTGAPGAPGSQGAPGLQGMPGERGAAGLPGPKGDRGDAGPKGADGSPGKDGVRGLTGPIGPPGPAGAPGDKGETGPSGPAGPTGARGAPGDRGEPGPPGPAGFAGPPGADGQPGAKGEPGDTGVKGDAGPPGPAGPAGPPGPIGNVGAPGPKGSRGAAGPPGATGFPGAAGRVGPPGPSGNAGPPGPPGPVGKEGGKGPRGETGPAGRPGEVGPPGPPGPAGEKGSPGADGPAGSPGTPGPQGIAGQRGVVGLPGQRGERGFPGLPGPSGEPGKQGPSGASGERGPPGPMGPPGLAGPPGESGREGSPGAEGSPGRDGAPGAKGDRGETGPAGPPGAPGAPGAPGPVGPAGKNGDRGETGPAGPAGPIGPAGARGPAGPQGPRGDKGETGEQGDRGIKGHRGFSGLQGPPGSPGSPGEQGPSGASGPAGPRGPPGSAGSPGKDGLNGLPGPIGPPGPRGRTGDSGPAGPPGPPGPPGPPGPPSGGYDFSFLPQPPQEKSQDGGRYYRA
T3 sequence (P02466 86-1125 limits assumed, chain 2 of 2): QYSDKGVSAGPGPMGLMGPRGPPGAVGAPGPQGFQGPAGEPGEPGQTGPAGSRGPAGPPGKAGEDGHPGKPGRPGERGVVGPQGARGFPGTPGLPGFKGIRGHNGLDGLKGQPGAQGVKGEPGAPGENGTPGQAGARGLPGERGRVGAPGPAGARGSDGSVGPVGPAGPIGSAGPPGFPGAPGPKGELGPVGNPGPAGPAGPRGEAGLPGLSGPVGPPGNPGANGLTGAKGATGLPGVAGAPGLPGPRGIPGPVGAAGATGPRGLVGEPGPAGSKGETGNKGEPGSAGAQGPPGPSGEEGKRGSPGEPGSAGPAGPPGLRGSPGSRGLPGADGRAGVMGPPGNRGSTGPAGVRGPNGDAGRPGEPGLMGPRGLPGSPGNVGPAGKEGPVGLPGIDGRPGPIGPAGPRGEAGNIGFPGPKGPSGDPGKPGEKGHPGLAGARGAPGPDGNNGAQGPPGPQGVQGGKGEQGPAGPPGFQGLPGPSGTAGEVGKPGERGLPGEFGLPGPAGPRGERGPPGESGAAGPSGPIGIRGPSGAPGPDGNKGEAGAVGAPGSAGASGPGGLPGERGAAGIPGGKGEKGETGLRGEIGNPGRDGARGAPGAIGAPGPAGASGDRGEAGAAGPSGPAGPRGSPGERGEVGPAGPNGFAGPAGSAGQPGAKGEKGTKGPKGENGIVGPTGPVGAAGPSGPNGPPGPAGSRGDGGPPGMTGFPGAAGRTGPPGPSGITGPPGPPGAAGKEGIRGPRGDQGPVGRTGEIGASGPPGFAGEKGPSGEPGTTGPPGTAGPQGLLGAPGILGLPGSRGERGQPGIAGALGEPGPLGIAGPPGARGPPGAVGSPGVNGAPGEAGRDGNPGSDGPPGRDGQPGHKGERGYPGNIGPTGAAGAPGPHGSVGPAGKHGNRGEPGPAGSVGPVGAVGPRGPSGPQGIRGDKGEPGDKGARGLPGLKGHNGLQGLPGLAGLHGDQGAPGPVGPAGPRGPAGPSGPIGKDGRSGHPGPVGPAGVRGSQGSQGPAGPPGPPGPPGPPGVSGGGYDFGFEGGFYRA
T1 sequence (P02454 152-1207 limits assumed): as the sequence (P02454 152-1207 limits assumed, chain 1 of 2) above
T1 sequence (P02466 86-1125 limits assumed): as the sequence (P02466 86-1125 limits assumed, chain 2 of 2) above

Molecule: O=C([O-])CN(CCN(CC(=O)[O-])CC(=O)O)CCN(CC(=O)[O-])CC(=O)O.[Gd+3] [GdDTPA, gadolinium diethylenetriaminepentaacetate]
percent of compound present at 0 minutes post infusion that remains at 10 minutes [1]: 0.5% and 2.2%
signal of centrifuged collagen gel relative to supernatant (rat type I collagen): no increased concentration of GdDTPA in the gel relative to the supernatant

B5: SEQ ID NO: 106 (peptide)
peptide: YHACYQAGCWIY
modifications: disulfide 4-9 (inferred)
% bound [5]: 9%
% bound [6]: 24%

B6: SEQ ID NO: 110 (peptide)
peptide: YSACYQAGCYIY
modifications: disulfide 4-9 (inferred)
% bound [5]: 10%
% bound [6]: 2%

B7: SEQ ID NO: 118 (peptide)
peptide: DWTCSGNHLTWYCNYG
modifications: disulfide 4-13 (inferred)
% bound [7]: 68%
% bound [8]: 67%

B9: Comp ID 951 (peptide)
peptide: {Gd^T″}-GK([Gly-Gd^T″])WHCTTYFPHH[Bip]CLYG
modifications: disulfide 5-14; not fully specified (C-terminus); printed as Gd^T-G-K(G.Gd^T)-WHCTTYFPHH-Bip-CLYG
% bound [9]: 45%

B10: Comp ID 869 (peptide)
peptide: GQWHCTTSFPHHYCLYG
modifications: not fully specified; Gd^T-GQWHCTTSFPHHYCLYG
% bound [9]: 46%
% bound [10]: 37%

B11: Comp ID 898 (peptide)
peptide: {Gd^T}-GQWHCT[dS]RFPHHYCLYG
modifications: disulfide 5-14 (inferred); not fully specified (C-terminus); printed as Gd^T-GQWHCTsRFPHHYCLYG; reading uncertain
% bound [9]: 5%

B12: Comp ID 900 (peptide)
peptide: {Gd^T}-GQWHCT[dR]RFPHHYCLYG
modifications: disulfide 5-14 (inferred); not fully specified (C-terminus); printed as Gd^T-GQWHCTrRFPHHYCLYG; reading uncertain
% bound [9]: 4%

B13: Comp ID 897 (peptide)
peptide: {Gd^T}-GQWHCT[dN]RFPHHYCLYG
modifications: disulfide 5-14 (inferred); not fully specified (C-terminus); printed as Gd^T-GQWHCTnRFPHHYCLYG; reading uncertain
% bound [9]: 4%

B14: SEQ ID NO: 116 (peptide)
peptide: DWTCSGDHLTWHCNYG
modifications: disulfide 4-13 (inferred)
% bound [7]: 58%
% bound [8]: 35%

B15: SEQ ID NO: 117 (peptide)
peptide: DWTCSGDHLTWKCNYG
modifications: disulfide 4-13 (inferred)
% bound [7]: 38%
% bound [8]: 24%

B16: Comp ID 939 (peptide)
peptide: Cbz-GQWHCT[Dap](Gd^T″)RFPHHYCLYG
modifications: disulfide 5-14; not fully specified (C-terminus); printed as cbz-GQWHCT-Dpr(Gd^T)-RFPHHYCLYG
% bound [9]: 4%
% bound [10]: 5%

B17: SEQ ID NO: 115 (peptide)
peptide: DWTCSGDPYTWHCNYE
modifications: disulfide 4-13 (inferred)
% bound [7]: 39%
% bound [8]: 23%

B18: SEQ ID NO: 119 (peptide)
peptide: DWTCSGDEFTWHCNYE
modifications: disulfide 4-13 (inferred)
% bound [7]: 55%
% bound [8]: 55%

B19: SEQ ID NO: 109 (peptide)
peptide: YSACYQAGCWIW
modifications: disulfide 4-9 (inferred)
% bound [5]: 21%
% bound [6]: 37%

B21: SEQ ID NO: 122 (peptide)
peptide: GQWTCSGDEYTWHCNYE
modifications: disulfide 5-14 (inferred)
% bound [11]: 71%
% bound [12]: 71%

B22: SEQ ID NO: 123 (peptide)
peptide: GQWTCSGDEYTWHCNY
modifications: disulfide 5-14 (inferred)
% bound [11]: 59%
% bound [12]: 72%

B24: SEQ ID NO: 114 (peptide)
peptide: WTCSGDEYTWHCNYE
modifications: disulfide 3-12 (inferred)
% bound [7]: 19%
% bound [8]: 14%

Continued, values first:

specific heart uptake [2]: no specific uptake
Molecule: Q W T C S G D E Y T w H C N Y E (GQWTCSGDEYT[dW]HCNYE; disulfide 5-14 (inferred)) [SEQ ID NO: 173, -G- Linker at the N-terminus]

% bound [3]: 56%
% bound [4]: 66%
B1: SEQ ID NO: 158 (peptide)
peptide: YHACYQ[dA]GCWIW
modifications: disulfide 4-9 (inferred)

% bound [3]: 38%
% bound [4]: 48%
B2: SEQ ID NO: 156 (peptide)
peptide: YHAC[dY]QAGCWIW
modifications: disulfide 4-9 (inferred)

% bound [3]: 20%
% bound [4]: 12%
B3: SEQ ID NO: 160 (peptide)
peptide: YHACYQAGC[dW]IW
modifications: disulfide 4-9 (inferred)

% bound [3]: 0%
% bound [4]: 0%
B4: SEQ ID NO: 153 (peptide)
peptide: Y[dH]ACYQAGCWIW
modifications: disulfide 4-9 (inferred)

% bound [3]: 8%
% bound [4]: 10%
B8: SEQ ID NO: 161 (peptide)
peptide: YHACYQAGCW[dI]W
modifications: disulfide 4-9 (inferred)

% bound [3]: 24%
% bound [4]: 21%
B20: SEQ ID NO: 154 (peptide)
peptide: YH[dA]CYQAGCWIW
modifications: disulfide 4-9 (inferred)

% bound [3]: 37%
% bound [4]: 35%
B23: SEQ ID NO: 157 (peptide)
peptide: YHACY[dQ]AGCWIW
modifications: disulfide 4-9 (inferred)
